From article PMC11077065

What was measured:
[1] = target: PhiPA3 ChmC (Chimallin C, gp61), full-length (bacteriophage PhiPA3); test: SEC-MALS
[2] = target: PhiPA3 ChmC-ΔC (residues 204-251 removed) (bacteriophage PhiPA3); test: SEC-MALS

Substance | stoichiometry N [1] | stoichiometry N [2]
PhiPA3 ChmC (Chimallin C, gp61), full-length (natural protein) | 4 | –
PhiPA3 ChmC-ΔC (residues 204-251 removed) (domain or fragment) | – | 4
